Our source for the ratio to parent values is publication PMC9687537.

This test concerns the target DYNC2H1 [human (endogenous in RPE1)]. The experiment in a line: GFP-trap purification, TMT-labelling and mass spectrometry. The conditions noted are these: RPE1 WDR34 KO cell lines expressing GFP proteins, serum-starved for 24 h; read off a plot.

In the case of “GFP–WDR34-WT mutant A22V [human] / DYNC2H1 [human (endogenous in RPE1)] chain 1 A22V”, the ratio to parent was 0.93.
On to “GFP–WDR34-WT mutant A341V [human] / DYNC2H1 [human (endogenous in RPE1)] chain 1 A341V”, for which the ratio to parent came out at 2.
“GFP–WDR34-WT mutant C148F [human] / DYNC2H1 [human (endogenous in RPE1)] chain 1 C148F”: the ratio to parent amounted to 0.55.
In the case of “GFP–WDR34-WT mutant G393S [human] / DYNC2H1 [human (endogenous in RPE1)] chain 1 G393S”, the ratio to parent was 0.3.
For “GFP–WDR34-WT mutant K436R [human] / DYNC2H1 [human (endogenous in RPE1)] chain 1 K436R”, the ratio to parent stood at 2.
With “GFP–WDR34-WT mutant P390L [human] / DYNC2H1 [human (endogenous in RPE1)] chain 1 P390L”, the ratio to parent was 1.6.
With “GFP–WDR34-WT mutant R182W [human] / DYNC2H1 [human (endogenous in RPE1)] chain 1 R182W”, the ratio to parent was determined as 2.
“GFP–WDR34-WT mutant R206C [human] / DYNC2H1 [human (endogenous in RPE1)] chain 1 R206C”: the ratio to parent turned out to be 2.7.
To “GFP–WDR34-WT mutant R447Q [human] / DYNC2H1 [human (endogenous in RPE1)] chain 1 R447Q” belongs 0.62.
For “GFP–WDR34-WT mutant R447W [human] / DYNC2H1 [human (endogenous in RPE1)] chain 1 R447W”, the ratio to parent came out at 0.93.
On to “GFP–WDR34-WT mutant S410I [human] / DYNC2H1 [human (endogenous in RPE1)] chain 1 S410I”, for which the ratio to parent amounted to 0.45.
In the case of “GFP–WDR34-WT mutant T354M [human] / DYNC2H1 [human (endogenous in RPE1)] chain 1 T354M”, the ratio to parent is 0.22.
